# In PMC5430537, “The tarantula toxin β/δ-TRTX-Pre1a highlights the importance of the S1-S2 voltage-sensor region for sodium channel subtype selectivity” (Scientific Reports, 2017):
# Bridge positions count the residues as written; N and C are the ends. Peptide text beside a SMILES is read from it.
# What was measured:
# NaV1.7 VSD IV = details: cited from earlier work
# Excerpt: (§1) NaV channel fast inactivation is controlled by the movement of the DIV voltage-sensing domain[17]. […] However, all these peptides share less than 50% similarity with Pre1a (See Fig. 1d) and have very differ ...
# hNaV1.3 = hNaV1.3 and hNaV1.1 peak current; cited from earlier work
# Excerpt: as §1
# hNaV1.1 [1] = target: T1, hNaV1.1 (Homo sapiens, UniProt P35498); details: hNaV1.3 and hNaV1.1 peak current; cited from earlier work
# Excerpt: as §1
# rNaV1.2 = target: T2, rNaV1.2 (Rattus norvegicus, UniProt P04775); assay: Two-electrode voltage clamp, rNaV1.2 expressed in Xenopus oocytes; assay type: cell-based; details: α-subunit alone, clamped at −90 mV, 50 ms step to −10 or 0 mV, recombinant Pre1a, n ≥ 5, read-out: peak current inhibition IC50
# T2 construct: expressed in transfected cells; host or cells: Xenopus laevis oocytes (cRNA injection, alpha subunit alone)
# Description: (§2) The preparation and injection of Xenopus laevis oocytes and NaV channel recordings using two-electrode voltage-clamp (TEVC) were carried out as described previously. Capped cRNA encoding rat NaV1.2, NaV1.3 and NaV1.4, and human NaV1.5 and NaV1.7 were injected at 20–40 ng of cRNA/oocyte and kept at 17–18 °C in ND96 solution containing (in mM) 96 NaCl, 2 KCl, 1 CaCl2, 2 MgCl2, 5 HEPES, 5 pyruvic acid, 50 µg/ml gentamicin (pH 7.4), and horse serum (2.5%). Membrane currents were recorded 2–5 days after injection. Oocytes were clamped at −90 mV and currents were elicited by a 50 ms depolarising step to −10 or 0 mV every 10 s for concentration response curves. Both peak and late current (50 ms post peak) were analysed. The concentration response curves were fitted to the Hill equation (GraphPad Prism 6). Current-voltage (I-V) relationships and voltage-dependence of fast inactivation were determined using a family of 100 ms conditioning pulses from −100 mV to +50 mV (+60 mV for rNaV1.3) in 5 mV steps, followed by a test depolarisation step to 0 mV with a 20 s sweep interval from a holding potential of −90 mV. […] The half-activation potential (V 1/2) was determined using a Boltzmann fit (GraphPad Prism 6). […]
# hNaV1.1 [2] = target: T1, hNaV1.1; assay: QPatch automated patch clamp, HEK293 cells stably co-expressing hNaV1.1 and NaVβ1; assay type: cell-based; details: HEK
# Description: (§3) For patch clamp analysis, HEK293 cells stably co-expressing the hNaV1.1, hNaV1.6, or hNaV1.7 α-subunit with the NaVβ1-subunit (SB Drug Discovery) were cultured following manufacturer guidelines. Cells were removed from culture at 70% confluency using Detachin (Genlantis) and resuspended to 5 × 10^6 cells/mL in Ex-Cell ACF CHO Medium (Life Technologies) supplemented with 25 mM HEPES (Sigma-Aldrich) and 1 × Glutamax (Life Technologies) before being transferred to the Q-Patch Q-Stirrer and allowed to recover for 30 min before assay.
# (§4) The external solution contained (in mM): 140 NaCl, 4 KCl, 2 CaCl2, 1 MgCl2, 10 HEPES, 20 TEA-Cl, 10 glucose, pH 7.4 (with NaOH) and adjusted to 315 mOsm 0.05% BSA was added to prevent adsorptive loss of peptide. The intracellular solution contained (in mM): 140 CsF, 1/5 EGTA/CsOH, 10 HEPES and 10 NaCl, pH 7.4 (with CsOH) and adjusted to 320 mOsm. Whole-cell patch-clamp experiments were performed at room temperature on a QPatch-16 automated electrophysiology platform (Biolin Scientific) using 16-channel planar patch chip plates (Q-Plates) with a patch hole diameter of 1 µm and resistance of 2 ± 0.1 MΩ. […] Pre1a concentrations were incubated for a fixed time of 5–10 min to allow steady-state activity, monitored by the I-T plot.
# hNaV1.7 [3] = target: T3, hNaV1.7 (Homo sapiens, UniProt Q15858); assay: QPatch automated patch clamp, HEK293 cells stably co-expressing hNaV1.7 and NaVβ1; assay type: cell-based
# Description: as §3, §4
# Target sequence in this assay (Q07699 19-218): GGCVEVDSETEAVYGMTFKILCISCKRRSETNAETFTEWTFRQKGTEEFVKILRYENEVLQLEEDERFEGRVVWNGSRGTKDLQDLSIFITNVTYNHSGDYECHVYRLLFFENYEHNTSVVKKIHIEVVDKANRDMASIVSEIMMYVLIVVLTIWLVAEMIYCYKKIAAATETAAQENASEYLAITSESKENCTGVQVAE
# Target sequence in this assay (Q15858 whole entry): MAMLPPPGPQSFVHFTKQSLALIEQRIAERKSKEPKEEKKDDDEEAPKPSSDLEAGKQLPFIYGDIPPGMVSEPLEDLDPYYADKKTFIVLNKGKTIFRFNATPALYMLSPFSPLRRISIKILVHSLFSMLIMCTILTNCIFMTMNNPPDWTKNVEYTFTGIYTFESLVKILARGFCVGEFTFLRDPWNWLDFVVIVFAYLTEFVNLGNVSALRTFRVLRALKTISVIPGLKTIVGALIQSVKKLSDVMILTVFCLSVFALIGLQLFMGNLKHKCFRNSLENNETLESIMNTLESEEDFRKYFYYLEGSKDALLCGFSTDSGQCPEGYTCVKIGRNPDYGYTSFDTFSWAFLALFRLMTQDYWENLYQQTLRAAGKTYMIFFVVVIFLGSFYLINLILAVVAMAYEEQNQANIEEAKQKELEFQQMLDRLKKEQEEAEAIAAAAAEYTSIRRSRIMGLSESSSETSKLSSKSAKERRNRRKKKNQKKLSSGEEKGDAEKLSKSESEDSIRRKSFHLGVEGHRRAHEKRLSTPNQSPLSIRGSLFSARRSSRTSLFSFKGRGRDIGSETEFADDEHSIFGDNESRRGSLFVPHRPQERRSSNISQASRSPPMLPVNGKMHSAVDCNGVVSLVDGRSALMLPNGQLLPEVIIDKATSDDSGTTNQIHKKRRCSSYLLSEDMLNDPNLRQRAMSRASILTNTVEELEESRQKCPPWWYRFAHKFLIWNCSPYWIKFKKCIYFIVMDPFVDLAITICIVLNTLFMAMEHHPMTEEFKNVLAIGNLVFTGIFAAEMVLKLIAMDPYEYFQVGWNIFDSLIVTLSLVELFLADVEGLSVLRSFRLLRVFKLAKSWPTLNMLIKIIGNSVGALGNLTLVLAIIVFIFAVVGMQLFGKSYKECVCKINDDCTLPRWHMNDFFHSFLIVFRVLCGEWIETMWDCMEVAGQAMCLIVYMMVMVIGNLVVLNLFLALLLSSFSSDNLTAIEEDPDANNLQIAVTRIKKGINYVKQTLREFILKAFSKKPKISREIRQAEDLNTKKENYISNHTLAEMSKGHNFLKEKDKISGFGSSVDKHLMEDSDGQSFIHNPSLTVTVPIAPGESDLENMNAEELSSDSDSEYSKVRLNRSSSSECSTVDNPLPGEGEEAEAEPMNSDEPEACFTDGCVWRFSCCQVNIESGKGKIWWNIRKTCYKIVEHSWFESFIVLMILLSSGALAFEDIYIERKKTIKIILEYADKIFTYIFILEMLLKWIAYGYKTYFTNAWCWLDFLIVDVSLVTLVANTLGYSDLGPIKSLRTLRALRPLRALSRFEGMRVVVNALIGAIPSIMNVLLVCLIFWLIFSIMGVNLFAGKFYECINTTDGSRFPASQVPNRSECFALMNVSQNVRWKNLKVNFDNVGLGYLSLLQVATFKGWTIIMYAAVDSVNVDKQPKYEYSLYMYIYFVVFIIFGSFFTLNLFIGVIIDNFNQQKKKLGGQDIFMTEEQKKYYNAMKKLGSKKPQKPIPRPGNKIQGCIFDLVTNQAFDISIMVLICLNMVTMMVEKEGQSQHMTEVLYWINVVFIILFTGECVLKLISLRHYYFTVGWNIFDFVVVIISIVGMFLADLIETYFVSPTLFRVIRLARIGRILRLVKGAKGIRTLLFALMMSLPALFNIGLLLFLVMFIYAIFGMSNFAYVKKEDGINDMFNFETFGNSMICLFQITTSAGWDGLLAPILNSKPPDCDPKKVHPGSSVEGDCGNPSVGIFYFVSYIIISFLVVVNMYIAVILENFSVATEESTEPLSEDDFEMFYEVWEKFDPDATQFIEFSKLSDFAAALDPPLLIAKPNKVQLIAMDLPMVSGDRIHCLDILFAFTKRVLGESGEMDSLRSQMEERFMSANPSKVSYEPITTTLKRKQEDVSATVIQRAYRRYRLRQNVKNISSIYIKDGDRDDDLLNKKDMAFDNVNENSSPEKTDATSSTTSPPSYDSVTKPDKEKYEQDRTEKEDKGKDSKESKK
# rNaV1.3 = target: T4, rNaV1.3 (Rattus norvegicus, UniProt P08104); assay: Two-electrode voltage clamp, rNaV1.3 expressed in Xenopus oocytes; assay type: cell-based
# T4 construct: expressed in transfected cells; host or cells: Xenopus laevis oocytes (cRNA injection, alpha subunit alone)
# Excerpt: We analysed the rate of fast inactivation (defined as tau, τinact, or the time to reach 36.8% of a single exponential fit of the current decay) and the degree of persistent sodium current measured at 50 ms of depolarisation (NaV1.2 and 1.7) and 100 ms for rNaV1.3 due to the longer time required to reach complete inactivation in the oocyte expression system without β1.
# The preparation and injection of Xenopus laevis oocytes and NaV channel recordings using two-electrode voltage-clamp (TEVC) were carried out as described previously. Capped cRNA encoding rat NaV1.2, NaV1.3 and NaV1.4, and human NaV1.5 and NaV1.7 were injected at 20–40 ng of cRNA/oocyte and kept at 17–18 °C in ND96 solution containing (in mM) 96 NaCl, 2 KCl, 1 CaCl2, 2 MgCl2, 5 HEPES, 5 pyruvic acid, 50 µg/ml gentamicin (pH 7.4), and horse serum (2.5%). Membrane currents were recorded 2–5 days after injection. Oocytes were clamped at −90 mV and currents were elicited by a 50 ms depolarising step to −10 or 0 mV every 10 s for concentration response curves. Both peak and late current (50 ms post peak) were analysed. The concentration response curves were fitted to the Hill equation (GraphPad Prism 6). Current-voltage (I-V) relationships and voltage-dependence of fast inactivation were determined using a family of 100 ms conditioning pulses from −100 mV to +50 mV (+60 mV for rNaV1.3) in 5 mV steps, followed by a test depolarisation step to 0 mV with a 20 s sweep interval from a holding potential of −90 mV. To determine the voltage-dependence of activation non-normalised peak current was used from the I-V family to calculate channel conductance using the equation: G(V) = I/(V − V rev), in which I, V, and V rev represent inward NaV current, test potential, and reversal potential, respectively. The half-activation potential (V 1/2) was determined using a Boltzmann fit (GraphPad Prism 6). All data points are shown as the pIC50 ± S.E.M., as well as the IC50. Replicates (n) represent separate experimental oocytes. Pre1a was resuspended in ND96 solution containing 0.1% bovine serum albumin for all activity analysis. […]
# hNaV1.7 [4] = target: T3, hNaV1.7; assay: Two-electrode voltage clamp, hNaV1.7 expressed in Xenopus oocytes; assay type: cell-based; design: expressed in transfected cells; host or cells: Xenopus laevis oocytes (cRNA injection, alpha subunit alone)
# Description: as §2
# Target sequence in this assay (Q15858 whole entry): as above
# hNaV1.6 = hNaV1.6 (Homo sapiens, UniProt Q9UQD0); assay: QPatch automated patch clamp, HEK293 cells stably co-expressing hNaV1.6 and NaVβ1; assay type: cell-based; details: HEK, with NaVβ1, QPatch16, 5–10 min incubation, holding −100 mV; n ≥ 6; read-out: peak current inhibition IC50
# Description: as §3, §4
# NaV channel DII = details: mutagenesis; cited from earlier work
# Excerpt: The striking differences in effects on NaV1.1, 1.2 and 1.3 are of particular significance for understanding the molecular basis of Pre1a’s subtype selectivity as these three channels have essentially identical S3-S4 linker regions in both DII and DIV (Fig. 7a) (note that NaV1.1 DII S3-S4 has an M to V ...
# NaV channels = details: cited from earlier work
# Excerpt: These VSD modulating peptides have been described to modify channel gating in three distinct ways depending on the domain they target and the effect on that domain[17]. Domain IV of the NaV channel α-subunit uniquely controls inactivation of the channel, thus spider peptides that interact with and hinder the normal function of VSDIV slow or inhibit fast inactivation of the channel and may result in persistent current. Conversely, spider venom peptides that interact with DI, DII, and DIII VSD modulate channel activation. Most of those discovered to date cause a shift in the voltage- ... || NaV channel fast inactivation is controlled by the movement of the DIV voltage-sensing domain[17]. […] However, all these peptides share less than 50% similarity with Pre1a (See Fig. 1d) and have very differ ...
# [5] = target: rat NaV1.3 α-subunit (rat) (UniProt P08104)
# [6] = target: rat NaV1.3 α-subunit (rat) (UniProt P08104); remark: listed apart in the source
# [7] = target: human NaV1.7 α-subunit (in oocytes) (human) (UniProt Q15858)
# [8] = target: rat NaV1.4 α-subunit (rat) (UniProt P15390)
# [9] = target: human NaV1.5 α-subunit (human) (UniProt Q14524)
# [10] = target: rat NaV1.3 α-subunit (rat) (UniProt P08104); remark: listed apart in the source
# [11] = target: rat NaV1.2 α-subunit (rat) (UniProt P04775)
# [12] = target: human NaV1.1 α-subunit (in HEK293 cells) (human) (UniProt P35498)
# [13] = target: human NaV1.6 α-subunit (in HEK293 cells) (human) (UniProt Q9UQD0)
# [14] = target: human NaV1.7 α-subunit (in HEK293 cells) (human) (UniProt Q15858)
# [15] = target: human NaV1.1 α-subunit (in HEK293 cells) (human) (UniProt P35498); remark: listed apart in the source
# [16] = target: human NaV1.7 α-subunit (in oocytes) (human) (UniProt Q15858); remark: listed apart in the source
# [17] = target: rat NaV1.3 α-subunit (rat) (UniProt P08104); remark: listed apart in the source
# [18] = target: rat NaV1.2 α-subunit (rat) (UniProt P04775); remark: listed apart in the source
# [19] = target: KV2.1 chimaera with the S3-S4 linker region of hNaV1.7 DII
# [20] = target: KV2.1 chimaera with the S3-S4 linker region of hNaV1.7 DIV
# Sequence of rat NaV1.3 α-subunit (rat) (P08104 whole entry): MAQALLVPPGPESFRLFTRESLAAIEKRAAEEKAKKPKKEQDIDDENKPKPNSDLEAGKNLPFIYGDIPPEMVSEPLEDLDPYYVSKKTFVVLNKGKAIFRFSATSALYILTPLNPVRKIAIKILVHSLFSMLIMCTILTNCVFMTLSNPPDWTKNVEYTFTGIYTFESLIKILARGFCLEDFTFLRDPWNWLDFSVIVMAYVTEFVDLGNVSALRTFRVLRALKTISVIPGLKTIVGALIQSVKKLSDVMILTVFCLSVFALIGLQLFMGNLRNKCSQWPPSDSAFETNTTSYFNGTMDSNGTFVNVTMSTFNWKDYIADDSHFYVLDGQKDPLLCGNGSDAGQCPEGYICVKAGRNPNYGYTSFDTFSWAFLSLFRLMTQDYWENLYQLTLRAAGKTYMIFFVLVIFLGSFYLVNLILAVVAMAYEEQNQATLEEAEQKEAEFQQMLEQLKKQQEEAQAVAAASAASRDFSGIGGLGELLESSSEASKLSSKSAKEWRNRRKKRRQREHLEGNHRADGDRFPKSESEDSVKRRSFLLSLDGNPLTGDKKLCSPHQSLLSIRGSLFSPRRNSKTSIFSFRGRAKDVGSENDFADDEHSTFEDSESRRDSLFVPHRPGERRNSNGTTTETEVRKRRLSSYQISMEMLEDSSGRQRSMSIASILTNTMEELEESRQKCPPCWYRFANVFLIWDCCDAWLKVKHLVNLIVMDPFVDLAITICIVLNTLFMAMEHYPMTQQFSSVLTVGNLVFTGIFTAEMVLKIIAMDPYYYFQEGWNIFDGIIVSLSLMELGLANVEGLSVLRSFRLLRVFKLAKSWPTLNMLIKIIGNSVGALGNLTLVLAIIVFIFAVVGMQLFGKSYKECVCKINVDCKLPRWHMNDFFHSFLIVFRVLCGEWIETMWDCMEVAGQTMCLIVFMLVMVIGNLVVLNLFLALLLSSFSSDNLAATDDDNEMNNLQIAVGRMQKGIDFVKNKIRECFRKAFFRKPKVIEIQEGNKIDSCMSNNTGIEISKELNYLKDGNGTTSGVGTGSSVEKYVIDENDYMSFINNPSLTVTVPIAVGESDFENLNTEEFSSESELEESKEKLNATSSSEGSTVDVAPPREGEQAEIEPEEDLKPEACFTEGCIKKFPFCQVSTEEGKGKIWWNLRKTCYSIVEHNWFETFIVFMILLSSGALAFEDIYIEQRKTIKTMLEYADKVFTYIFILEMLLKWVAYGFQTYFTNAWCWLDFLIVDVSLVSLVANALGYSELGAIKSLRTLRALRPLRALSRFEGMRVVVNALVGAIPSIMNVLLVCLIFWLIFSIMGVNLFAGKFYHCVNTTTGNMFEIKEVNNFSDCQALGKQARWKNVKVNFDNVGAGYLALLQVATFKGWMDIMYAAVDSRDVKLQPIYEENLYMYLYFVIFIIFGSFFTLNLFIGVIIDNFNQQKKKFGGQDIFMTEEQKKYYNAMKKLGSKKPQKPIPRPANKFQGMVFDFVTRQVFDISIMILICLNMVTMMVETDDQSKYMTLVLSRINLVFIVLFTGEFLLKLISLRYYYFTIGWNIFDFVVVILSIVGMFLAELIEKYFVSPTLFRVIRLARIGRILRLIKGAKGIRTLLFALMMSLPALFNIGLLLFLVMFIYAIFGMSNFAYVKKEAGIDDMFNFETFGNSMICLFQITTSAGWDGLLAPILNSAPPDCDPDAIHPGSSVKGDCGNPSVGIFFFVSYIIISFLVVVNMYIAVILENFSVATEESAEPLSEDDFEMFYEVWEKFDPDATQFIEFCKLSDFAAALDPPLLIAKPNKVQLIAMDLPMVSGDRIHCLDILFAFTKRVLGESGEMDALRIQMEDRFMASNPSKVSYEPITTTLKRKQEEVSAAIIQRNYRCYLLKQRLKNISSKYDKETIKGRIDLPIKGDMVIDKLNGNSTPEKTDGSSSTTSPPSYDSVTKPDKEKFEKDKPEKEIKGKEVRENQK
# T4 sequence (P08104 whole entry): as above
# Sequence of human NaV1.7 α-subunit (in oocytes) (human) (Q15858 whole entry): as the sequence (Q15858 whole entry) above
# Sequence of human NaV1.7 α-subunit (in HEK293 cells) (human) (Q15858 whole entry): as above
molecule,measurement,setting,value
CCN1CC(n2nccc2-c2cc(C(F)(F)F)ccc2Oc2ccc(S(=O)(=O)Nc3ncns3)cc2C#N)C1 [GX-936],state in which VSD is arrested,NaV1.7 VSD IV,arrests the VSD in the inactivated state
O=C(Nc1ccc(S(=O)(=O)Nc2nccs2)cc1)C(c1ccccc1)c1ccccc1 [ICA-121431],selectivity,hNaV1.3,~ 1000 fold
same,selectivity,hNaV1.1 [1],~ 1000 fold
"CC[C@H](C)[C@H](NC(=O)[C@H](CCCCN)NC(=O)[C@H](Cc1ccc(O)cc1)NC(=O)[C@H](CCCCN)NC(=O)[C@@H]1CSSC[C@@H]2NC(=O)[C@H](CCCCN)NC(=O)[C@H](CC(=O)O)NC(=O)[C@H](CC(N)=O)NC(=O)[C@H](CCCCN)NC(=O)[C@@H]3CCCN3C(=O)[C@H](CO)NC(=O)[C@@H]3CSSC[C@H](NC(=O)[C@H](CCCCN)NC(=O)[C@H](Cc4ccc(O)cc4)NC(=O)[C@H](CC(N)=O)NC(=O)[C@@H]4CCCN4C(=O)[C@H](CSSC[C@H](NC(=O)[C@H](CC(=O)O)NC(=O)[C@@H](N)CCC(=O)O)C(=O)N[C@@H](CC(C)C)C(=O)NCC(=O)N[C@@H](Cc4c[nH]c5ccccc45)C(=O)N[C@@H](Cc4ccccc4)C(=O)N[C@@H](CO)C(=O)N[C@@H](CCCNC(=N)N)C(=O)N3)NC2=O)C(=O)N[C@@H](CO)C(=O)N[C@@H](CO)C(=O)N[C@@H](CCCCN)C(=O)N[C@@H](CC(=O)O)C(=O)N[C@@H](CC(C)C)C(=O)N[C@@H](Cc2c[nH]c3ccccc23)C(=O)N1)C(=O)N[C@@H](Cc1c[nH]c2ccccc12)C(=O)O [Pre1a] (H-EDCLGWFSRCSPKNDKCCPNYKCSSKDLWCKYKIW-OH; disulfide 3-18, 10-23, 17-30)",IC50,rNaV1.2,190 nM
same,IC50,"hNaV1.1 [2]; QPatch16, read-out: peak current inhibition pIC50 (converted)",57.5 nM
same,EC50,"hNaV1.1 [2]; late current at 10 ms from peak, read-out: inhibition of fast inactivation pEC50 (converted)",41.7 nM
same,IC50,hNaV1.7 [3],15.1 nM
same,EC50,"rNaV1.3; late current at 100 ms, ± S.E.M.",45.7 nM
same,selectivity for inhibiting inactivation over activation,rNaV1.3; rNaV1.3 inactivation vs activation,more than 150 fold
same,IC50,"rNaV1.3; recombinant Pre1a, ± S.E.M., read-out: peak current inhibition pIC50 (converted)",7940 nM
same,IC50,hNaV1.7 [4],114 nM
same,selectivity for inhibiting activation over NaV1.3,hNaV1.7 [4]; NaV1.7 activation vs NaV1.3,~ 70 fold
same,IC50,hNaV1.6,222 nM
HwTxIV,effect of divergent residues in S2 region 1 on activity,NaV channel DII,little effect on the activity
ProTx-II: spider peptide,effect on peak current and fast inactivation,NaV channels,inhibit both peak current and fast inactivation of NaV channels
recombinant β/δ-TRTX-Pre1a (peptide),"EC50 of inhibition of inactivation (late current at 100 ms), two-electrode voltage clamp, Xenopus oocytes",[5],45.5 nM
same,"EC50 of inhibition of inactivation (late current), as printed in the legend, Xenopus oocytes",[6],45 nM
same,"IC50 of inhibition of peak inward current, two-electrode voltage clamp, Xenopus oocytes",[7],114 nM
same,"percent inhibition of peak current amplitude by 1 μM Pre1a (weak), two-electrode voltage clamp, Xenopus oocytes",[8],16.5%
same,"percent inhibition of peak current amplitude by 1 μM Pre1a (weak), two-electrode voltage clamp, Xenopus oocytes",[9],8.6%
same,"IC50 of inhibition of peak inward current (weak), two-electrode voltage clamp, Xenopus oocytes",[10],8000 nM
same,"IC50 of inhibition of peak inward current, two-electrode voltage clamp, Xenopus oocytes",[11],190 nM
β/δ-TRTX-Pre1a (synthetic or recombinant not stated for the experiment) (peptide),"EC50 of inhibition of fast inactivation (late current at 10 ms from peak), QPatch, HEK cells",[12],41.4 nM
same,"IC50 of inhibition of peak current, QPatch16 automated patch clamp, HEK cells",[13],222 nM
same,"IC50 of inhibition of peak current, QPatch16 automated patch clamp, HEK cells",[14],15 nM
same,"IC50 of inhibition of peak current, QPatch16 automated patch clamp, HEK cells",[15],57.1 nM
same,"shift of the V1/2 of activation by 1 µM Pre1a, Xenopus oocytes",[16],13.8 mV
same,"shift of the V1/2 of activation of the late current by 1 μM Pre1a, Xenopus oocytes",[17],9.6 mV
same,"shift of the V1/2 of activation by 1 µM Pre1a, Xenopus oocytes",[18],14.9 mV
same,percent inhibition of outward (peak) current by 1 μM Pre1a,[19],44%
same,percent inhibition of outward (peak) current by 1 μM Pre1a,[20],27.1%
